The supplement of paper PMC10567573

B1: OAS1 (parent)
chain: LQLGEGVEFDVLPAFDALGQLTGG

Variants of: B1
Experiment: protein stability index of a GFP-peptide fusion (GPS, HEK-293T) (PSI 1-6); higher = more stable
Details: c terminus: a fixed tail appended
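Also: lentivirally expressed fusions sorted by FACS into six bins by GFP to DsRed ratio, PSI derived from sequencing read proportions per bin multiplied by bin number.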

| Variant | protein stability index |
| --- | --- |
| LQLGEGVEFPVLPAFDALGQLTGG [D10P] | 2.53 |
| LQLGEGVEFFVLPAFDALGQLTGG [D10F] | 1.64 |
| LQLGEGVEFQVLPAFDALGQLTGG [D10Q] | 1.8 |
| LQLGEGVEFNVLPAFDALGQLTGG [D10N] | 3 |
| LQLGEGVEFVVLPAFDALGQLTGG [D10V] | 2.77 |
| LQLGEGVEFDVLPAFDALGVLTGG [Q20V] | 2.01 |
| LQLGEGVEFDVLPAFDALGPLTGG [Q20P] | 1.78 |
| LQLGEGVEFDVLPAFDALGFLTGG [Q20F] | 1.79 |
| LQLGEGVEFDVLPAFDALGILTGG [Q20I] | 2.06 |
| LQLGEGVEFDVLPAFDALGNLTGG [Q20N] | 2.28 |
| LQLGEGVEFDVLPAFDALGSLTGG [Q20S] | 1.77 |
| LQLGEGVEFDVLPAFDALGDLTGG [Q20D] | 2.65 |
| LQLGEGVEFDVLPAFDALGLLTGG [Q20L] | 1.02 |
| LQLGEGVEFDVLPAFDALGYLTGG [Q20Y] | 2.09 |
| LQLGEGVEFDVLPAFDALGMLTGG [Q20M] | 1.82 |
| LQLGCGVEFDVLPAFDALGQLTGG [E5C] | 1.25 |
| LQLGGGVEFDVLPAFDALGQLTGG [E5G] | 2.63 |
| LQLGLGVEFDVLPAFDALGQLTGG [E5L] | 1.02 |
| LQLGHGVEFDVLPAFDALGQLTGG [E5H] | 1.68 |
| LQLGDGVEFDVLPAFDALGQLTGG [E5D] | 2.24 |
| LQLGYGVEFDVLPAFDALGQLTGG [E5Y] | 1.14 |
| LQLGWGVEFDVLPAFDALGQLTGG [E5W] | 2.32 |
| LQLGVGVEFDVLPAFDALGQLTGG [E5V] | 2.24 |
| LQLGKGVEFDVLPAFDALGQLTGG [E5K] | 2.09 |

| Variant | protein stability index |
| --- | --- |
| LQLGNGVEFDVLPAFDALGQLTGG [E5N] | 2.09 |
| LQLGEGVEFDVLHAFDALGQLTGG [P13H] | 2.21 |
| LQLGEGVEFDVLYAFDALGQLTGG [P13Y] | 2.03 |
| LQLGEGVEFDVLRAFDALGQLTGG [P13R] | 1.29 |
| LQMGEGVEFDVLPAFDALGQLTGG [L3M] | 2.34 |
| LQDGEGVEFDVLPAFDALGQLTGG [L3D] | 2.98 |
| LQCGEGVEFDVLPAFDALGQLTGG [L3C] | 2.57 |
| LQRGEGVEFDVLPAFDALGQLTGG [L3R] | 3.24 |
| LQEGEGVEFDVLPAFDALGQLTGG [L3E] | 4.56 |
| LQSGEGVEFDVLPAFDALGQLTGG [L3S] | 3.02 |
| LQHGEGVEFDVLPAFDALGQLTGG [L3H] | 4.17 |
| LQWGEGVEFDVLPAFDALGQLTGG [L3W] | 2.49 |
| LQQGEGVEFDVLPAFDALGQLTGG [L3Q] | 3.6 |
| LQLGEGVEFDELPAFDALGQLTGG [V11E] | 2.95 |
| LQLGEGVEFDQLPAFDALGQLTGG [V11Q] | 3.62 |
| LQLGEGVEFDWLPAFDALGQLTGG [V11W] | 1.16 |
| LQLGEGVEFDMLPAFDALGQLTGG [V11M] | 2.33 |
| LQLGEGVEFDNLPAFDALGQLTGG [V11N] | 3.33 |
| LQLGEGVEFDLLPAFDALGQLTGG [V11L] | 1.96 |
| LQLGEGVEFDKLPAFDALGQLTGG [V11K] | 2.72 |
| LQLGEGVEFDILPAFDALGQLTGG [V11I] | 1.49 |
| LQLGEGVEFDALPAFDALGQLTGG [V11A] | 1.91 |
| LQLGEGVEFDPLPAFDALGQLTGG [V11P] | 2.3 |
| LQLGEGVEFDCLPAFDALGQLTGG [V11C] | 2 |

| Variant | protein stability index |
| --- | --- |
| LQLGEGVEFDVLPAFDAEGQLTGG [L18E] | 3.1 |
| LQLGEGVEFDVLPAFDATGQLTGG [L18T] | 2.48 |
| LQLGEGVEFDVLPAFDADGQLTGG [L18D] | 3.47 |
| LQLGEGVEFDVLPAFDAIGQLTGG [L18I] | 1.26 |
| LQLGEGVEFDVLPAFDARGQLTGG [L18R] | 2.79 |
| LQLGEGVTFDVLPAFDALGQLTGG [E8T] | 1.42 |
| LQLGEGVDFDVLPAFDALGQLTGG [E8D] | 2.54 |
| LQLGEGVWFDVLPAFDALGQLTGG [E8W] | 1.98 |
| LQLGEGVQFDVLPAFDALGQLTGG [E8Q] | 1.67 |
| LQLGEGVPFDVLPAFDALGQLTGG [E8P] | 2.09 |
| LQLGEGVIFDVLPAFDALGQLTGG [E8I] | 2.37 |
| LQLGEGNEFDVLPAFDALGQLTGG [V7N] | 2.46 |
| LQLGEGFEFDVLPAFDALGQLTGG [V7F] | 1.8 |
| LQLGEGTEFDVLPAFDALGQLTGG [V7T] | 2.41 |
| LQLGEGMEFDVLPAFDALGQLTGG [V7M] | 1.52 |
| LQLGEGREFDVLPAFDALGQLTGG [V7R] | 2.27 |
| LQLGEGLEFDVLPAFDALGQLTGG [V7L] | 3.26 |
| LQLGEGAEFDVLPAFDALGQLTGG [V7A] | 2.33 |
| LQLGEGVEFDVLPAFDALGQLTGH [G24H] | 3.16 |
| LQLGEGVEFDVLPAFDALGQLTGF [G24F] | 1.17 |
| LQLGEGVEFDVLPAFDALGQLTGT [G24T] | 1.48 |
| LQLGEGVEFDVLPAFDALGQLTGS [G24S] | 1.81 |
| LQLGEGVEFDVLPAFDALGQLTGI [G24I] | 3.05 |
| LQLGEGVEFDVLPAFDALGQLTGN [G24N] | 1.5 |

| Variant | protein stability index |
| --- | --- |
| LQLGEGVEFDVLPAFDALGQLTGE [G24E] | 2.31 |
| LQLGEGVEFDVLPAGDALGQLTGG [F15G] | 3.56 |
| LQLGEGVEFDVLPAYDALGQLTGG [F15Y] | 1.47 |
| LQLGEGVEFDVLPATDALGQLTGG [F15T] | 3.48 |
| LQLGEGVEFDVLPASDALGQLTGG [F15S] | 2.73 |
| LQLGEGVEFDVLPALDALGQLTGG [F15L] | 2.48 |
| LQLGEGVEFDVLPADDALGQLTGG [F15D] | 3.12 |
| LQLGEGVEFDVLPAMDALGQLTGG [F15M] | 1.96 |
| LQLGEGVEFDVLPAIDALGQLTGG [F15I] | 2.27 |
| LQLGEGVEFDVLPAEDALGQLTGG [F15E] | 3.57 |
| GQLGEGVEFDVLPAFDALGQLTGG [L1G] | 4.46 |
| EQLGEGVEFDVLPAFDALGQLTGG [L1E] | 4.58 |
| MQLGEGVEFDVLPAFDALGQLTGG [L1M] | 2.57 |
| RQLGEGVEFDVLPAFDALGQLTGG [L1R] | 4.01 |
| IQLGEGVEFDVLPAFDALGQLTGG [L1I] | 1.04 |
| VQLGEGVEFDVLPAFDALGQLTGG [L1V] | 2.71 |
| HQLGEGVEFDVLPAFDALGQLTGG [L1H] | 4.33 |
| AQLGEGVEFDVLPAFDALGQLTGG [L1A] | 3.26 |
| CQLGEGVEFDVLPAFDALGQLTGG [L1C] | 2.95 |
| DQLGEGVEFDVLPAFDALGQLTGG [L1D] | 4.96 |
| YQLGEGVEFDVLPAFDALGQLTGG [L1Y] | 2.31 |
| LQLGEGVEFDVLPAFDALAQLTGG [G19A] | 1.77 |
